Source: patent US20040248211A1, “ICAM-related protein” (priority 1992, published 2004)

B1: ICR-1.1: anti-ICAM-R monoclonal antibody, IgG2a, domain 1, ATCC HB 11053 (antibody, V domains shown)
VH: QVQLQQSGAELAKPGASVKMSCKASGYTFTVYWMHWVKQRPGQGLEWIGYINPNTDYTEYNQRFQDKATLTADKSSSTAYMQLSSLTSEDSAVYYCARWGGNSYGLDYWGQGTSVTVSS
VL: QIVLTQSPALMSASPGEKVTMTCSASSSVSYIYWYQQKPRSSPKPWIYLTSNLASGVPARFSGSGSGASYSLTISIMEAEDAATYYCQQWKSIPLTFGAGTKLELK
B2: ICR-8.1: anti-ICAM-R monoclonal antibody, IgG1, domain 1, ATCC HB 11232 (antibody, V domains shown)
VH: EIQLQQTGPELVKPGASVKISCKASGYSFTDCIILWVKQSHGKGLEWIGKINPYFGTTTYNLKFKGKATLTVDKSSSTAHMQLNSLTSEDSAVYYCARKEAYPDAMDYWGQGTSVTVSS
VL: DAVMTQTPLSLPVSLGDQASISCRSSQSLVHSNGDTYLHWYLQKPGQSPQLLIYKVSNRFSGVPDRFSGSGSGTDFTLKLSRVEAEDLGVYFCSQSTHVPYTFGGGTKLEIK

Experiments:
[1] = test system: U937 cells; assay: IL-8 release from U937; type: cell-based, human
Description: Monocytes were isolated by elutriation from peripheral blood of normal donors. […] After blocking free sites, the cells were placed into the wells in medium. […] Those cells plated in wells treated with BSA plus or minus LPS were rounded and not spread. After 8 or 18 hours of incubation at 37° C., the medium was removed and assayed for IL-8 immunoreactivity. […] By 18 hours, IL-8 levels in media from ICR monoclonal antibody wells were much elevated over control levels. […] Similar experiments with monocytic cell lines (U937 and HL60) to determine if ICR monoclonal antibody can induce IL-8 release were conducted. U937 cells responded to each of the ICR monoclonal antibody treated wells by releasing IL-8 into the conditioned medium. […] No detectable morphological changes were detected with the U937 or HL60 cells.

[2] = test system: Monocytes; assay: MCP-1 release from monocytes; type: cell-based, human; conditions: for release of MCP-1 into conditioned medium: 8 and 18 hour time points
Description: Monocytes were isolated by elutriation from peripheral blood of normal donors. Plastic wells were coated with ICR-1.1, 2.1, 8.1 or albumin alone (10 μg/ml). After blocking free sites, the cells were placed into the wells in medium. After 1 hour in culture, the cells that were in the ICR Mab treated wells had flattened onto the substratum. Those cells plated in wells treated with BSA plus or minus LPS were rounded and not spread. After 8 or 18 hours of incubation at 37° C., the medium was removed and assayed for IL-8 immunoreactivity. […] By 18 hours, IL-8 levels in media from ICR monoclonal antibody wells were much elevated over control levels. ICR-1.1 induced levels increased ten times, ICR-2.1 induced levels were four times and ICR-8.1 induced levels were two times over the levels seen at the 8 hour time point. Similar experiments with monocytic cell lines (U937 and HL60) to determine if ICR monoclonal antibody can induce IL-8 release were conducted. U937 cells responded to each of the ICR monoclonal antibody treated wells by releasing IL-8 into the conditioned medium. […] No detectable morphological changes were detected with the U937 or HL60 cells.
Monocytes isolated and treated as described above were tested for release of MCP-1 at 8 and 18 hour time points. […] MCP-1 release elicited by ICR-1.1 peaked at 8 hours. Release from Mab ICR-2.1 and ICR-8.1 was not detected until 18 hours when it was 4-fold greater than the peak 1.1 induction level.

[3] = molecular target: T1, Protein 1 (ICAM-R domain 1 fused to ICAM-1) (Homo sapiens, UniProt P05362+P32942, A175T/A179V/A227S/A249V/A265P/D143G/D183H/D240V/E159K/E168G/E234D/F135L/F230V/G202E/M196L/M262R/P127S/P187N/P238T/Q133K/Q164E/Q197R/R211Y/R214Q/R224Q/S145A/S149N/S162K/S180R/S236Q/T148A/T242S/V205E/V220A/W157G/W237G/Y255H); assay: FACS binding to COS cell transfectants; conditions: for percent positive COS cell transfectants, Protein 1: antibody 5.0 ug/ml
T1 construct: immunoglobulin-like domain of ICAM-R (residues 1 to 93) fused to ICAM-1 (residue 117 to 532); ICAM-1 residue 117 to 532 (fusion partner in the same polypeptide); expressed in transfected cells; host or cells: COS cells, plasmid pcDNA1Amp.RD1.ID2-5
From the text: (§1) FIG. 7 is a diagram of the chimeric proteins whose construction is outlined below. Protein number 1 contains the amino-terminal immunoglobulin-like domain of ICAM-R (residues 1 to 93) fused to ICAM-1 (residue 117 to 532). Protein number 2 contains the first two amino terminal immunoglobulin-like domains of ICAM-R (residues 1 to 190) fused to ICAM-1 (residues 216 to 532). Protein number 3 contains the first three immunoglobulin-like domains of ICAM-R (residues 1 to 291) fused to ICAM-1 (residues 317 to 532).
(§2) For the anti-ICAM-R monoclonal antibody binding assay, COS cells transfected with constructs encoding the ICAM-R chimeric proteins or control constructs were removed from the plates by EDTA treatment and aliquoted at 2.5×10^5 cells per well in a 96-well round bottom plate. Cells were washed 3 times with ice cold washing buffer (PBS containing 1% BSA and 0.05% sodium azide). Anti-ICAM-R monoclonal antibody was applied at 5.0 ug/ml in 50 ul final volume and incubated on ice for 30 minutes. Cells were then washed three times with cold washing buffer and incubated with the FITC labeled secondary antibody (sheep anti-mouse IgG F(ab′)2) at a 1:100 dilution on ice for 30 minutes in dark in 50 ul final volume. After the incubation, cells were washed again for three times in the ice cold washing buffer and resuspended in 200 ul of 1% paraformaldehyde. The samples were analyzed on a Becton-Dickinson FACScan instrument. Results of the assay are given below in Table 5 as percent positive COS cell transfectants, wherein MOPC 21 (IgG1) and UPC 10 (IgG2a) are isotype matched controls, 18E3D is an ICAM-1 specific monoclonal antibody and ICR-1.1 to ICR-9.2 are ICAM-R specific monoclonal antibodies. The reactivities of monoclonal antibodies ICR-1.1 through ICR-9.2 were assayed in a different experiment than monoclonal antibodies ICR-12.1 through ICR-17.1.

[4] = molecular target: T2, Protein 2 (ICAM-R domains 1-2 fused to ICAM-1) (Homo sapiens, UniProt P05362+P32942, A227S/A249V/A265P/D240V/E234D/F230V/M262R/P219L/P238T/R224Q/S236Q/T242S/V220A/W237G/Y255H); assay: FACS binding to COS cell transfectants; conditions: antibody 5.0 ug/ml
T2 construct: domains of ICAM-R (residues 1 to 190) fused to ICAM-1 (residues 216 to 532); ICAM-1 residues 216 to 532 (fusion partner in the same polypeptide); expressed in transfected cells; host or cells: COS cells, plasmid pcDNA1Amp.RD1-2.1D3-5
From the text: as §1, §2

T1 sequence (P32942+P05362 fused with the stated changes): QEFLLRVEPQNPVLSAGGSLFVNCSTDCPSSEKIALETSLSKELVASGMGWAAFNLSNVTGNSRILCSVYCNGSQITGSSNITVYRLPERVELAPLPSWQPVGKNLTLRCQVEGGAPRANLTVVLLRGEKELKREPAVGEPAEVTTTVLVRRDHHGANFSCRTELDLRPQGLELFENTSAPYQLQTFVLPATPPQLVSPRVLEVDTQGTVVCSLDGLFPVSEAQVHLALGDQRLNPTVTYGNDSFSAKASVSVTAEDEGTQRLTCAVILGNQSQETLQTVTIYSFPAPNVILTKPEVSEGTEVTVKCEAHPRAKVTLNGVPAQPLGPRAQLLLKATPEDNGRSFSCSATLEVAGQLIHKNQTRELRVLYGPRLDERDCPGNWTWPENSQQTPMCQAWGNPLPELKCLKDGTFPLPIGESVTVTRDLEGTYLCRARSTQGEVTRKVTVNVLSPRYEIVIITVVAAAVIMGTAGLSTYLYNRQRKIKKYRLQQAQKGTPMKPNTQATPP
T2 sequence (P32942+P05362 fused with the stated changes): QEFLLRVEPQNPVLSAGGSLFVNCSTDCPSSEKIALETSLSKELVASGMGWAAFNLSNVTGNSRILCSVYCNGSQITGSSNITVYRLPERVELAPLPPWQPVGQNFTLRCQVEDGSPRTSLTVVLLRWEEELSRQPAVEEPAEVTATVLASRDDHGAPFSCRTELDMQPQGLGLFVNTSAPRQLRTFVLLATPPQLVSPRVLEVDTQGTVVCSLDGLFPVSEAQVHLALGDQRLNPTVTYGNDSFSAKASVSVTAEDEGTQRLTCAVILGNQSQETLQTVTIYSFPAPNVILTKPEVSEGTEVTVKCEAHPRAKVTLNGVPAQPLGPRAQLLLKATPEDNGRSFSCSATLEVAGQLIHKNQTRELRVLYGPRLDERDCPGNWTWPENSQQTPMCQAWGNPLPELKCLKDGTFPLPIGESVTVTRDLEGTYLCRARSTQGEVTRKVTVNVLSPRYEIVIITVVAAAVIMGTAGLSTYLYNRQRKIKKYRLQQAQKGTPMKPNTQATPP

| Molecule | IL-8 release relative to ICR-4.2, 6.2 or 8.1 treated wells [1] | time of peak MCP-1 release [2] | release of MCP-1 into conditioned medium [2] | recognition of hybrid with only ICAM-R domain 1 (domain 1 specific) [3] | percent positive COS cell transfectants, Protein 1 [3] | percent positive COS cell transfectants, Protein 2 [4] | IL-8 release relative to the BSA control [1] | MCP-1 release at 18 hours relative to the peak ICR-1.1 induction level ([2]; not detected until 18 hours) |
| --- | --- | --- | --- | --- | --- | --- | --- | --- |
| B1 | 3 fold | 8 h | induced release of MCP-1 | recognize the hybrid molecule | 60.27% | 68.32% |  |  |
| B2 |  |  | induced release of MCP-1 | recognize the hybrid molecule | 57.34% | 64.25% | twice | 4 fold |
